Results reported in patent publication US20260139035A1 (NATIONAL UNIVERSITY CORPORATION KUMAMOTO UNIVERSITY, published 2026).

B1: 4-66 antibody (antibody, V domains shown)
VH: EVQLVESGGGLVQPGGSLRLSCAASGIIVSRNYMTWVRQAPGKGLEWVSVIYSGGTTYYADSVKGRFTTSRDDSKNTLYLQMNSLRGDDTAVYYCARDPPHRRGSYWGQGTLVTVSS
VL: DILMTQSPSSLSASVGDRVTITCQASQDINKYLNWYQQKPGKAPKLLIYDASNLETGVPSRFSGSGSGTDFSFTISSLQPEDVATYYCQQSDNLPPTFGQGTNVEIK
B2: 1-58 antibody (antibody, V domains shown)
VH: QVQLVQSGAEVKKPGASVRVSCKASGYSFTASYMHWVRQAPGQGLEWMAIINPGDDNTSYAQKFQGRVTLTRDTSTTTVYMELRSLRSEDTAVYYCTRSTRDYVWGNYRYTPGYYLDYWGQGTLVTVSS
VL: DIRMTQSPSSLSASVGDRVTITCRASQTISNYLNWYQQKPGKAPKLLIYAASSLQSGVPSRFSGSGSGTDFTLTISSLQPEDFATYYCQQGYITPITFGQGTRLEIK
B3: 1-44 antibody (antibody, V domains shown)
VH: EVQLVESGGGVVQPGSSLRLSCAASGFTFRSHAMHWVRQAPGKGLEGVAVIWYDGSNKYYADSVKGRFTISRDNSKNTLYLQMNSLRAEDTAVYYCAREGIAVPGNGADAFDIWGQGTMVTVSS
VL: DIQMTQSPSSLSASVGDRVTITCRASQSIGNFLNWYQQKPGKAPKLLIYAASSLQSGVPSRFSGSGSGTDFTLTISSLQPEDFATYYCQQTYSTPYTFGQGTKLEIK

Experiments:
Assay in all cases: cell-based or functional assay
[1] = molecular target: spike protein of SARS-CoV-2 Gamma strain (P.1) (SARS-CoV-2)
[2] = molecular target: spike protein of SARS-CoV-2 prototype (614G) (SARS-CoV-2, UniProt P0DTC2 14-1273)
[3] = molecular target: spike protein of SARS-CoV-2 Kappa strain (B.1.617.1) (SARS-CoV-2)
[4] = molecular target: spike protein of SARS-CoV-2 Alpha strain (B.1.1.7) (SARS-CoV-2)
[5] = molecular target: spike protein of SARS-CoV-2 Omicron BA.1 (SARS-CoV-2)
[6] = molecular target: spike protein of SARS-CoV-2 Delta strain (B.1.617.2) (SARS-CoV-2)
[7] = molecular target: spike protein of SARS-CoV-2 Mu strain (B.1.621) (SARS-CoV-2)
[8] = molecular target: spike protein of SARS-CoV-2 Beta strain (B.1.351) (SARS-CoV-2)
[9] = molecular target: spike protein of SARS-CoV-2 Omicron BA.2 (SARS-CoV-2)
[10] = molecular target: spike protein of SARS-CoV-2 Omicron BA.3 (SARS-CoV-2)
[11] = molecular target: spike protein of SARS-CoV-2 Omicron BA.2.12.1 (SARS-CoV-2)
[12] = molecular target: spike protein of SARS-CoV-2 Lambda strain (C.37) (SARS-CoV-2)
[13] = molecular target: spike protein of SARS-CoV-2 Omicron BA.1.1 (SARS-CoV-2)
[14] = molecular target: spike protein of SARS-CoV-2 Omicron BA.4/5 (SARS-CoV-2)

Row | Binder | IC50, pseudovirus neutralization [1] | IC50, pseudovirus neutralization [2] | IC50, pseudovirus neutralization [3] | IC50, pseudovirus neutralization [4] | IC50, pseudovirus neutralization [5] | IC50, pseudovirus neutralization [6] | IC50, pseudovirus neutralization [7] | IC50, pseudovirus neutralization [8] | IC50, pseudovirus neutralization [9] | IC50, pseudovirus neutralization [10] | IC50, pseudovirus neutralization [11] | IC50, pseudovirus neutralization [12] | IC50, pseudovirus neutralization [13] | IC50, pseudovirus neutralization [14]
1 | B1 | < 0.21 µg/mL | < 0.21 µg/mL | < 0.21 µg/mL | < 0.21 µg/mL | < 0.21 µg/mL | < 0.21 µg/mL | < 0.21 µg/mL | < 0.21 µg/mL | < 0.21 µg/mL | < 0.21 µg/mL | < 0.21 µg/mL | < 0.21 µg/mL | < 0.21 µg/mL | < 0.21 µg/mL
2 | B2 | < 0.087 µg/mL | < 0.087 µg/mL | < 0.087 µg/mL | < 0.087 µg/mL | < 0.087 µg/mL | < 0.087 µg/mL | < 0.087 µg/mL | < 0.087 µg/mL | < 0.087 µg/mL | < 0.087 µg/mL | < 0.087 µg/mL | < 0.087 µg/mL | < 0.087 µg/mL | < 0.087 µg/mL
3 | B3 | < 0.47 µg/mL | < 0.47 µg/mL | < 0.47 µg/mL | < 0.47 µg/mL | < 0.47 µg/mL | – | – | < 0.47 µg/mL | < 0.47 µg/mL | < 0.47 µg/mL | < 0.47 µg/mL | < 0.47 µg/mL | < 0.47 µg/mL | –
